Measurements from the supplement of paper PMC9112550, “Optimization of the antimicrobial peptide Bac7 by deep mutational scanning” (BMC Biology, 2022).

Each sequence was assayed on Escherichia coli TOP10 (assay: shrunken log2 fold change of peptide-encoding DNA abundance (4.5 h post-induction vs induction); higher = less antimicrobial activity (less host growth inhibition)). Conditions: time post-induction: 4.5 h; library: site-saturation at positions 5, 18, 19, 20.
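Note: peptides expressed intracellularly from a pBAD plasmid library in pooled LB shake-flask culture, induced with 0.3% L-arabinose, DNA abundance read by NGS, three biological replicates, DESeq2 with apeglm shrinkage.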

Sequence | shrunken log2 fold change
RRIRCRPPRLPRPRPRPWKMPRP | -0.0124
RRIRGRPPRLPRPRPRPHLYPRP | 0.155
RRIRQRPPRLPRPRPRPRHIPRP | -0.319
RRIRTRPPRLPRPRPRPTFLPRP | -0.0937
RRIRFRPPRLPRPRPRPQLGPRP | 0.1
RRIRIRPPRLPRPRPRPCWVPRP | -0.451
RRIRRRPPRLPRPRPRPNTNPRP | -0.22
RRIRYRPPRLPRPRPRPNYSPRP | -1.39
RRIRWRPPRLPRPRPRPYWQPRP | -0.0738
RRIRERPPRLPRPRPRPCRIPRP | -0.0965
RRIRPRPPRLPRPRPRPRTNPRP | -0.0218
RRIRVRPPRLPRPRPRPQCRPRP | -0.167
RRIRRRPPRLPRPRPRPHMAPRP | -0.128
RRIRQRPPRLPRPRPRPDSYPRP | -0.127
RRIRARPPRLPRPRPRPVPKPRP | 0.791
RRIRSRPPRLPRPRPRPLIDPRP | -0.197
RRIRDRPPRLPRPRPRPHWGPRP | 0.00196
RRIRQRPPRLPRPRPRPLIWPRP | 0.855
RRIRIRPPRLPRPRPRPMQQPRP | 0.0184
RRIRYRPPRLPRPRPRPGSCPRP | -0.308
RRIRSRPPRLPRPRPRPHVVPRP | 0.0681
RRIRYRPPRLPRPRPRPGIVPRP | -0.384

Sequence | shrunken log2 fold change
RRIRYRPPRLPRPRPRPPECPRP | 0.0463
RRIRGRPPRLPRPRPRPSFDPRP | 0.44
RRIRMRPPRLPRPRPRPWGNPRP | -0.00136
RRIRTRPPRLPRPRPRPFWEPRP | 1.78
RRIRQRPPRLPRPRPRPRYRPRP | -0.419
RRIRIRPPRLPRPRPRPEMKPRP | -0.037
RRIRVRPPRLPRPRPRPPVMPRP | -0.105
RRIRNRPPRLPRPRPRPETNPRP | 0.196
RRIRFRPPRLPRPRPRPCCIPRP | -0.313
RRIRERPPRLPRPRPRPLQVPRP | -0.384
RRIRWRPPRLPRPRPRPTGSPRP | 0.123
RRIRDRPPRLPRPRPRPQRNPRP | -0.0378
RRIRWRPPRLPRPRPRPFQAPRP | -0.222
RRIRARPPRLPRPRPRPMLHPRP | 0.206
RRIRKRPPRLPRPRPRPWYLPRP | 0.0253
RRIRSRPPRLPRPRPRPGHCPRP | 0.0298
RRIRRRPPRLPRPRPRPDYVPRP | 0.0255
RRIRCRPPRLPRPRPRPDWSPRP | 0.0534
RRIRLRPPRLPRPRPRPKFTPRP | -0.289
RRIRTRPPRLPRPRPRPCTIPRP | -0.456
RRIRPRPPRLPRPRPRPWPEPRP | 0.0423
RRIRCRPPRLPRPRPRPEDSPRP | 0.00322

Sequence | shrunken log2 fold change
RRIRMRPPRLPRPRPRPFKFPRP | -0.012
RRIRYRPPRLPRPRPRPNSSPRP | 0.0291
RRIRRRPPRLPRPRPRPCMAPRP | 0.61
RRIRERPPRLPRPRPRPGQYPRP | -0.113
RRIRYRPPRLPRPRPRPCYNPRP | -0.857
RRIRCRPPRLPRPRPRPFSRPRP | -0.332
RRIRQRPPRLPRPRPRPPSPPRP | 0.426
RRIRPRPPRLPRPRPRPDGSPRP | -0.00717
RRIRGRPPRLPRPRPRPTGTPRP | 0.517
RRIRHRPPRLPRPRPRPTREPRP | 0.0175
RRIRARPPRLPRPRPRPTVWPRP | 0.552
RRIRKRPPRLPRPRPRPVIYPRP | -0.0353
RRIRARPPRLPRPRPRPLTNPRP | 0.303
RRIRSRPPRLPRPRPRPTGLPRP | 0.127
RRIRFRPPRLPRPRPRPICLPRP | -0.548
RRIRCRPPRLPRPRPRPFSEPRP | -0.929
RRIRARPPRLPRPRPRPSYKPRP | -0.305
RRIRYRPPRLPRPRPRPQLHPRP | -0.395
RRIRIRPPRLPRPRPRPNTVPRP | -1.09
RRIRQRPPRLPRPRPRPRLGPRP | 0.272
RRIRKRPPRLPRPRPRPDFTPRP | -0.206
RRIRKRPPRLPRPRPRPASNPRP | 0.147

Sequence | shrunken log2 fold change
RRIRGRPPRLPRPRPRPVCHPRP | 0.54
RRIRGRPPRLPRPRPRPGITPRP | 0.356
RRIRARPPRLPRPRPRPCHNPRP | -0.161
RRIRARPPRLPRPRPRPCCIPRP | 0.13
RRIRRRPPRLPRPRPRPCPGPRP | -0.196
RRIRIRPPRLPRPRPRPCYSPRP | -0.0549
RRIRPRPPRLPRPRPRPTLWPRP | 0.299
RRIRMRPPRLPRPRPRPGFVPRP | 0.449
RRIRARPPRLPRPRPRPCQRPRP | 0.246
RRIRKRPPRLPRPRPRPSCWPRP | 0.244
RRIRMRPPRLPRPRPRPLTNPRP | 0.0401
RRIRRRPPRLPRPRPRPREWPRP | 1.03
RRIRFRPPRLPRPRPRPAYVPRP | 0.678
RRIRARPPRLPRPRPRPNTAPRP | 0.181
RRIRFRPPRLPRPRPRPCWGPRP | 0.00445
RRIRPRPPRLPRPRPRPQMYPRP | -0.338
RRIRRRPPRLPRPRPRPYRAPRP | -0.47
RRIRNRPPRLPRPRPRPIKAPRP | -0.0167
RRIRWRPPRLPRPRPRPGMNPRP | -0.0747
RRIRRRPPRLPRPRPRPPIDPRP | 0.144
RRIRWRPPRLPRPRPRPNNTPRP | -0.587
RRIRHRPPRLPRPRPRPGTDPRP | -0.0998

Sequence | shrunken log2 fold change
RRIRWRPPRLPRPRPRPGMSPRP | 0.893
RRIRVRPPRLPRPRPRPDDHPRP | -0.106
RRIRHRPPRLPRPRPRPPTNPRP | 0.101
RRIRPRPPRLPRPRPRPCHEPRP | -0.316
RRIRKRPPRLPRPRPRPVIDPRP | 1.29
RRIRYRPPRLPRPRPRPPAMPRP | -0.35
RRIRYRPPRLPRPRPRPDNGPRP | -0.00114
RRIRSRPPRLPRPRPRPAHPPRP | 0.427
RRIRHRPPRLPRPRPRPMRWPRP | 0.396
RRIRTRPPRLPRPRPRPEHQPRP | 0.127
RRIRKRPPRLPRPRPRPIYGPRP | -0.00172
RRIRCRPPRLPRPRPRPKNQPRP | -0.112
RRIRTRPPRLPRPRPRPCTHPRP | -0.0873
RRIRNRPPRLPRPRPRPTVEPRP | 0.0287
RRIRNRPPRLPRPRPRPQGQPRP | 0.225
RRIRARPPRLPRPRPRPMCLPRP | 0.0284
RRIRGRPPRLPRPRPRPHDEPRP | 0.136
RRIRSRPPRLPRPRPRPNFGPRP | -0.265
RRIRERPPRLPRPRPRPICRPRP | 0.0559
RRIRKRPPRLPRPRPRPATEPRP | 0.486
RRIRWRPPRLPRPRPRPWRQPRP | 0.25
